In patent US20220293215A1:

Target: I-A^b (MHCII) of murine bone marrow-derived dendritic cells from C57BL/6J mice (mouse) (UniProt P14434)
Assay: MHCII peptidomics: Y3P IP of peptide-MHCII from BMDCs exposed to live Listeria, iTRAQ LC-MS/MS
Conditions: scale: log2 fold change, Listeria 6 hr versus 10 min

logFC: 0.145
Substance: Listeria peptide mNRVmLPLQQmGAKMHGK (lmo1923 (aroE))
